PMC4637274

Columns and labels:
[1] = biological target: 16055 gp140 NFL2P (HIV-1 (16055)); assay: negative-stain EM of unliganded trimers
[2] = biological target: JRFL gp140 NFL2P (HIV-1 (JRFL)); assay: SEC + native gel or EMSA
[3] = biological target: JRFL gp140 NFL2P (HIV-1 (JRFL)); assay: negative-stain EM of unliganded trimers
[4] = biological target: BG505 gp140 NFL2P (HIV-1 (BG505)); assay: SEC + native gel or EMSA
[5] = biological target: BG505 gp140 NFL2P (HIV-1 (BG505)); assay: negative-stain EM of unliganded trimers

In the case of 16055 gp140 NFL2P, the stoichiometry N [1] is reported as 3.
Substance JRFL gp140 NFL2P has a stoichiometry N [2] of 3 and a stoichiometry N [3] of 3.
For BG505 gp140 NFL2P, the stoichiometry N [4] was 3 and the stoichiometry N [5] was 3.
